PMC7887213 (Nature Communications, 2021)

Tests used:
Details in all cases: both partners purified
[1] = target: T1, Ac-[residues removed]-NH2 (NPNA6 peptide) (Plasmodium falciparum (synthetic CSP …)); test: ITC; peptide in the syringe, Fab (~10 uM) in the cell; DPBS, 25 °C; single-site binding model; triplicate, mean ± SD; No. of sites = peptide per Fab
T1 construct: also called 24-mer peptide; source: synthetic peptide; bought: Innopep Inc

[2] = target: T2, Ac-[residues removed]-NH2 (NPNA2 peptide) (Plasmodium falciparum (synthetic CSP …)); test: as above
T2 construct: also called 8-mer peptide; source: synthetic peptide; bought: Innopep Inc

[3] = target: T3, Ac-[residues removed]-NH2 (NPNA4 peptide) (Plasmodium falciparum (synthetic CSP …)); test: as above
T3 construct: also called 16-mer peptide; source: synthetic peptide; bought: Innopep Inc

[4] = target: T4, NPNA2 peptide (Ac-[residues removed]-NH2) (Plasmodium falciparum (synthetic CSP …); test: ITC; peptide in the syringe, Fab (~10 uM) in the cell; DPBS; 25 C; single-site binding model; triplicate; apparent affinity
T4 construct: source: synthetic peptide, bought: Innopep Inc

[5] = target: T5, NPNA6 peptide (Ac-[residues removed]-NH2) (Plasmodium falciparum (synthetic CSP …); test: as above
T5 construct: source: synthetic peptide, bought: Innopep Inc

[6] = target: T6, NPNA4 peptide (Ac-[residues removed]-NH2) (Plasmodium falciparum (synthetic CSP …); test: as above
T6 construct: source: synthetic peptide, bought: Innopep Inc

B1: Fab364 (Fab, V domains shown)
VH: QVQLVESGGGVVQPGGSLRLSCAASGFTFSGYGMHWVRQVPGKGLEWVAIIWFDGSQKYYADSVQGRFTISRDNSKKTLFLRMNSLRAEDTAVYYCAKVHDDEPTQDYWGQGTLVTVSS
VL: DIQMTQSPSTLSASVGDRVTITCRASQGISTSLAWYQQKPGKAPKLLIYKASSLESGVPSRFSGSGSGTEFTLTITSLQPEDFATYYCQQYKRYWTFGQGTKVEIK
notes: also called mAb364; source: ExpiCHO cells, purified (HiTrap Protein G, SEC)
stoichiometry N [1]: 0.445 | stoichiometry N [2]: 1.41 | stoichiometry N [3]: 0.634

B2: Fab364 (Fab, V domains shown)
VH: QVQLVESGGGVVQPGGSLRLSCAASGFTFSGYGMHWVRQVPGKGLEWVAIIWFDGSQKYYADSVQGRFTISRDNSKKTLFLRMNSLRAEDTAVYYCAKVHDDEPTQDYWGQGTLVTVSS
VL: DIQMTQSPSTLSASVGDRVTITCRASQGISTSLAWYQQKPGKAPKLLIYKASSLESGVPSRFSGSGSGTEFTLTITSLQPEDFATYYCQQYKRYWTFGQGTKVEIK
notes: as for B1
Kd [4]: 47 nM | Kd [5]: 27 nM | Kd [6]: 28 nM

B3: Fab395 (Fab, V domains shown)
VH: QEQLVESGGGVVQPGRSLRLSCAAASEFCFSCYGMHWVRQAPGKGLEWVAVIWHDGSNQHFADSVKGRFTISRDNSKNIMYLQMNSLRAEDTAVYYCASATRYDILTGAFDYWGQGTLVTVSS
VL: DIQMTQSPSTLSASVGDRVTITCRASQSISTWLAWYQQKPGKAPKLLIYKASSLESGVPSRFSGSGSGTEFTLTISSLQPDDFATYYCQQYSRYWTFGQGTKVEIK
notes: also called mAb395; source: ExpiCHO cells, purified (HiTrap Protein G, SEC)
stoichiometry N [1]: 0.432 | stoichiometry N [2]: 1.35 | stoichiometry N [3]: 0.608

B4: Fab311 (Fab, V domains shown)
VH: EVQLVESGGGVVPPGRSLRLSCATSGFTFSNYGMHWVRQAPGKGLEWVAIIWYDGSRNFYAASVEGRFTISRDNSKNTLYLQMNSLRVEDTAVYYCARAAYYDTSGYGDYWGQGTLVTVSS
VL: ESVLTQPPSVSGAPGQTVTISCTGGSSNIGAGYDVHWYQQLPGTAPKLLIYGNINRPSGVPDRFSGSKSGTSASLAITGLQAEDEADYYCQSYDRRLSGSWVFGGGTKLTVL
notes: also called mAb311; source: ExpiCHO cells, purified (HiTrap Protein G, SEC)
stoichiometry N [1]: 0.386 | stoichiometry N [2]: 1.27 | stoichiometry N [3]: 0.578

B5: Fab311 (Fab, V domains shown)
VH: EVQLVESGGGVVPPGRSLRLSCATSGFTFSNYGMHWVRQAPGKGLEWVAIIWYDGSRNFYAASVEGRFTISRDNSKNTLYLQMNSLRVEDTAVYYCARAAYYDTSGYGDYWGQGTLVTVSS
VL: ESVLTQPPSVSGAPGQTVTISCTGGSSNIGAGYDVHWYQQLPGTAPKLLIYGNINRPSGVPDRFSGSKSGTSASLAITGLQAEDEADYYCQSYDRRLSGSWVFGGGTKLTVL
notes: as for B4
Kd [4]: 152 nM | Kd [5]: 19 nM

B6: Fab399 (Fab, V domains shown)
VH: EVQLVESGGGLVQPGRSLRLSCTTSGFTFGDYAMSWFRQAPGKGLEWVGFIRSKGFGGTAEYAAFVKGRFTISRDDSRSIAYLQMTSLKPEDTAVYYCSRVGVVIATAVYWGQGTLVTVSS
VL: DILMTQTPLSLSVTPGQPASISCKSSQSLLDNDGKTYLYWYLQKPGQSPQLLIYEVSNRFSGVPERFSGSGSGTDFTLKIRRVEAEDVGVYYCMQRIDLPWTFGQGTKVEIK
notes: also called mAb399; source: ExpiCHO cells, purified (HiTrap Protein G, SEC)
stoichiometry N [1]: 0.737 | stoichiometry N [2]: 3.23 | stoichiometry N [3]: 1.74

B7: Fab397 (Fab, V domains shown)
VH: EVQLVKSGGGLVKPGGSLRLSCAVSGFTFTDAWMSWVRQAPGKGPEWVGRIKSNPDGGTTDYAAPVRGRFTISRDDSKNTLYLQMNNLKTEDTAVYYCITDRDFYRSGGSWGQGTLVTV
VL: DIVMTQSPLSLPVTPGEPASISCRSRQSLLYSNGDNYLDWYLQKPGQSPQLLIYLGSNRAPGVPDRFSGSGSGTDFTLKISRVEAEDVGVYYCMQTLQTPHTFGQGTKLEIK
notes: also called mAb397; source: ExpiCHO cells, purified (HiTrap Protein G, SEC)
stoichiometry N [1]: 0.73 | stoichiometry N [2]: 1.18 | stoichiometry N [3]: 1.3

B8: Fab317 (Fab, V domains shown)
VH: QMQLVESGGGVVQPGRSLRLSCTASGFTFSTYAMHWVRQSPGQGLQWVAVISYHSTNKYYEDSVRGRFTISRDNSKNTLYLQMNSLRAEDTAVYYCARDGYSSSFFDFWGQGTLVTVSS
VL: DIQMTQSPSTLSASVGDRVAITCRASQSISRWLAWYQQQPGKAPKLLMSGASVLESGVPSRFSGSGSGTEFTLTISSLQPDDFATYYCQHYNSYFVTFGQGTKVEIK
notes: also called mAb317; source: ExpiCHO cells, purified (HiTrap Protein G, SEC)
stoichiometry N [1]: 0.723 | stoichiometry N [2]: 1.36 | stoichiometry N [3]: 0.95

B9: Fab356 (Fab, V domains shown)
VH: VQLVESGGGVVQPGRSLRLSCAASGFTFRNFGMHWVRQTPGKGLEWVAVIWHDGSNKFYADSVEGRFTISRDNSKNMIYLQMNSLRVEDTAIYYCARDSLFYDHDNSGYYGYWGQGTLVTVSS
VL: QIVMTQSPATVSVSPGERATLSCRASRSVTSKLAWYQQKPGQAPRLLIYGASTRATGIPARFSGSGSGTEFTLTISSLQSEDFAVYFCQQYNNGFTFGPGTKVDFK
notes: also called mAb356; source: ExpiCHO cells, purified (HiTrap Protein G, SEC)
stoichiometry N [1]: 0.354 | stoichiometry N [2]: 1.29 | stoichiometry N [3]: 0.542

B10: Fab224 (Fab, V domains shown)
VH: EVQLVESGGGLVQPGRSLRLPCTASGFSFGDHAMSWVRQAPGKGLEWVGFIRKTTYGATTHYAAAVRGRFTISRDDSKSIVYLQMNSLKTEDTAVYFCTRVQLDYGPGYQYYGMDVWGQGTTVTVSS
VL: ESVLTQPPSVSGAPGQRVTISCTGMNSNIGAGYDVYWYQQLPGRAPKLLIYGNSNRPSGVPDRFSGSRSGTSASLAITGLQAEDEADYYCQSYDTSLNGWAFGGGTKLTVL
notes: also called mAb224; source: ExpiCHO cells, purified (HiTrap Protein G, SEC)
stoichiometry N [1]: 0.749 | stoichiometry N [2]: 1.59 | stoichiometry N [3]: 1.26

B11: Fab224 (Fab, V domains shown)
VH: EVQLVESGGGLVQPGRSLRLPCTASGFSFGDHAMSWVRQAPGKGLEWVGFIRKTTYGATTHYAAAVRGRFTISRDDSKSIVYLQMNSLKTEDTAVYFCTRVQLDYGPGYQYYGMDVWGQGTTVTVSS
VL: ESVLTQPPSVSGAPGQRVTISCTGMNSNIGAGYDVYWYQQLPGRAPKLLIYGNSNRPSGVPDRFSGSRSGTSASLAITGLQAEDEADYYCQSYDTSLNGWAFGGGTKLTVL
notes: as for B10
Kd [4]: 14200 nM | Kd [5]: 141 nM | Kd [6]: 126 nM

B12: Fab366 (Fab, V domains shown)
VH: QVQLVQSGAEVKKPGASARVSCKASGYTLTDFYLHWVRQAPGQGLEWMGWLNPHSGGTNYAQKFLGRVSMTRDTSISTAYMELNKLISDDTAVYFCVRSDQEALRGAFDIWGQGTMVFVSS
VL: DIQMTQSPSSLSASVGDTVTITCRASQSINDYLNWYQQKPGKAPKLLIYATSSLHSGVPSRFSGSGFGTDFTLTISSLQPEDSATYLCQQSHSLWTFGQGTKVEVK
notes: also called mAb366; source: ExpiCHO cells, purified (HiTrap Protein G, SEC)
stoichiometry N [1]: 0.67 | stoichiometry N [2]: 1.21 | stoichiometry N [3]: 1.21

B13: Fab239 (Fab, V domains shown)
VH: QVQLVESGGGVVQPGRSLRLSCAASRLTFRNFGMHWVRQTPGKGLEWVAVIWHDGSNKFYADSVEGRFTISRDNSKNTLYLQMNSLRDEDTAIYYCAKDWGGASDRVFDYWGRGTLVIVSS
VL: DIQMTQSPSTLSASVGDRVTITCRASQSVSTSLAWYQQKPGKAPNLLIYQASTLYRGVPSRFSGSGSGTEFTLTIGSLQPDDFATYYCQHYNSYSRITFGQGTRLEIK
notes: also called mAb239; source: ExpiCHO cells, purified (HiTrap Protein G, SEC)
stoichiometry N [1]: 0.348 | stoichiometry N [2]: 1.34 | stoichiometry N [3]: 0.572

B14: Fab239 (Fab, V domains shown)
VH: QVQLVESGGGVVQPGRSLRLSCAASRLTFRNFGMHWVRQTPGKGLEWVAVIWHDGSNKFYADSVEGRFTISRDNSKNTLYLQMNSLRDEDTAIYYCAKDWGGASDRVFDYWGRGTLVIVSS
VL: DIQMTQSPSTLSASVGDRVTITCRASQSVSTSLAWYQQKPGKAPNLLIYQASTLYRGVPSRFSGSGSGTEFTLTIGSLQPDDFATYYCQHYNSYSRITFGQGTRLEIK
notes: as for B13
Kd [4]: 641 nM | Kd [5]: 10 nM | Kd [6]: 20 nM
